Values of other authors, collected in paper PMC8515877.

Molecular target: GnRH receptor (Mus musculus) (UniProt Q01776)
Sequence of UniProt Q01776 (Q01776 whole entry): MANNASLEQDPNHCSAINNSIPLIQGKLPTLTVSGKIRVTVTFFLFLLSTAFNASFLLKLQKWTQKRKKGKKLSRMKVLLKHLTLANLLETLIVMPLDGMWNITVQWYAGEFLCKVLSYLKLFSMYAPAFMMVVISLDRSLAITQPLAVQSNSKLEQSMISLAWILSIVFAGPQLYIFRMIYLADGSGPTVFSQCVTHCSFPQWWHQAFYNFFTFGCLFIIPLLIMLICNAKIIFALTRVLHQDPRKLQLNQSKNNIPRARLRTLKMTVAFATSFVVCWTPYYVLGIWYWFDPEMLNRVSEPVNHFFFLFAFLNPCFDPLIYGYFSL

Sequence of GnRH (P13562 whole entry, looked up): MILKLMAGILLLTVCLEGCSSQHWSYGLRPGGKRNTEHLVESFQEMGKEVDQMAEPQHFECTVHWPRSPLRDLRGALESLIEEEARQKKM

Kd: 1.4 nM
Substance: GnRH (from UniProt P13562)
